From US20150064134A1

Legend:
Assay in all cases: cell-based or functional assay
Abl(H396P)(h) (human) = Abl(H396P)(h) (human) (UniProt P00519)
Abl(T315I)(h) (human) = Abl(T315I)(h) (human) (UniProt P00519)
CaMKI(h) (human) = CaMKI(h) (human) (UniProt Q14012)
EGFR(T790M)(h) (human) = EGFR(T790M)(h) (human) (UniProt P00533)
EphA2(h) (human) = EphA2(h) (human) (UniProt P29317)
EphB2(h) (human) = EphB2(h) (human) (UniProt P29323)
GCK(h) (human) = target: T1, GCK(h) (human) (UniProt Q12851)
T1 sequence (looked up): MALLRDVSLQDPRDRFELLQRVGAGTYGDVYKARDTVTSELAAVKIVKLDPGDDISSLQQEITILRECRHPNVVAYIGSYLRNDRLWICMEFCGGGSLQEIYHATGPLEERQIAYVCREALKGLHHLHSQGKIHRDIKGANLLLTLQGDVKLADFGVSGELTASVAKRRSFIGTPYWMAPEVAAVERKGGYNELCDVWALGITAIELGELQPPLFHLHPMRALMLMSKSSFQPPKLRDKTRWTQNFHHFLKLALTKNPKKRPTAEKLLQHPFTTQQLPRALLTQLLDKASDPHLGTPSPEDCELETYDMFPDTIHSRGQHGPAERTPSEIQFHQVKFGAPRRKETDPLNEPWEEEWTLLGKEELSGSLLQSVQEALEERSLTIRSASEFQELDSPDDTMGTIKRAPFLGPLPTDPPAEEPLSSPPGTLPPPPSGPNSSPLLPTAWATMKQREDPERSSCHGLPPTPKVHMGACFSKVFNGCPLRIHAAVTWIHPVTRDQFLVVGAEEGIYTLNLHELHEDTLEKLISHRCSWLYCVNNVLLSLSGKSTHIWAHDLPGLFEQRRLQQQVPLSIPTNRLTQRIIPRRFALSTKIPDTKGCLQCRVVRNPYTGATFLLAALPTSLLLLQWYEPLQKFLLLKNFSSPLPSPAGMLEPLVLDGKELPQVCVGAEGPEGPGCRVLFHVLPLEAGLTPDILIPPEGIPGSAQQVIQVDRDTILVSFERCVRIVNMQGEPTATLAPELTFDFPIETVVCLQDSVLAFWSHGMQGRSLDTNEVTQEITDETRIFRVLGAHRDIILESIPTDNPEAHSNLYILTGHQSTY

HIPK3(h) (human) = HIPK3(h) (human) (UniProt Q9H422)
JAK2(h) (human) = JAK2(h) (human) (UniProt O60674)
MKK7β(h) (human) = MKK7β(h) (human) (UniProt O14733)
Met(M1268T)(h) (human) = Met(M1268T)(h) (human) (UniProt P08581)
Mnk2(h) (human) = Mnk2(h) (human) (UniProt Q9HBH9)
PAK4(h) (human) = PAK4(h) (human) (UniProt O96013)
PKCδ(h) (human) = PKCδ(h) (human) (UniProt Q05655)
ROCK-II(h) (human) = ROCK-II(h) (human) (UniProt O75116)
SAPK3(h) (human) = target: T2, SAPK3(h) (human) (UniProt P53778)
T2 sequence (looked up): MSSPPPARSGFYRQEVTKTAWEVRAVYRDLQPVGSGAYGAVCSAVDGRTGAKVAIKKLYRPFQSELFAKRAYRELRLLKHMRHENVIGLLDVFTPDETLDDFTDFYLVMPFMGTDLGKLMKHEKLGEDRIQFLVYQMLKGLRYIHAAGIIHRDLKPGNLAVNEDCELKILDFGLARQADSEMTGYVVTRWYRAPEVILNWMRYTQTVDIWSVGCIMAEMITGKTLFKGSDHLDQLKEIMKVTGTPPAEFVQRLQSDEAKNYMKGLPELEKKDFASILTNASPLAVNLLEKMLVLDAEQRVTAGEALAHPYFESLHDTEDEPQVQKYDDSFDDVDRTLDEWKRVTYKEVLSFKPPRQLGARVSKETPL

cKit(V654A)(h) (human) = cKit(V654A)(h) (human) (UniProt P10721)
Bmx(h) (human) = target: T3, Bmx(h) (human) (UniProt P51813)
T3 sequence (looked up): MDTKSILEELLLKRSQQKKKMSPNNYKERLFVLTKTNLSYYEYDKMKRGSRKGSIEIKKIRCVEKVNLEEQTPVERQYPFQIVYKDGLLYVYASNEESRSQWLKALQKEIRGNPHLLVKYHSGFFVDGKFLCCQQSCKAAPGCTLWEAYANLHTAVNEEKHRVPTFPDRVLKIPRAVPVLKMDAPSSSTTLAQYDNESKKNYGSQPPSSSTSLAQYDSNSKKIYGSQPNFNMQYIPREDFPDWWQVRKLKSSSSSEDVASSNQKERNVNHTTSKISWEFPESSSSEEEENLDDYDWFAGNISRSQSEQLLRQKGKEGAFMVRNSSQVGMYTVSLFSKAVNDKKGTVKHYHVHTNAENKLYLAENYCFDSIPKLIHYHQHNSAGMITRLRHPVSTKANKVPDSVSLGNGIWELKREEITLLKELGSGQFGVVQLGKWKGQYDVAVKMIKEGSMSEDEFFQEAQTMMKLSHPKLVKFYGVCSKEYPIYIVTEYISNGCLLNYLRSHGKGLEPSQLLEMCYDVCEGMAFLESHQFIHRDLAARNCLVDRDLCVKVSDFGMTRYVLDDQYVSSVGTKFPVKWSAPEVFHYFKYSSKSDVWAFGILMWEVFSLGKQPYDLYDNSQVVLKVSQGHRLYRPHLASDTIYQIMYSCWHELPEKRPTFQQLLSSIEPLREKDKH

JAK3(h) (human) = JAK3(h) (human) (UniProt P52333)
Met(Y1248D)(h) (human) = Met(Y1248D)(h) (human) (UniProt P08581)

EphB2(h) (human), sequence (P29323 565-986 limits assumed): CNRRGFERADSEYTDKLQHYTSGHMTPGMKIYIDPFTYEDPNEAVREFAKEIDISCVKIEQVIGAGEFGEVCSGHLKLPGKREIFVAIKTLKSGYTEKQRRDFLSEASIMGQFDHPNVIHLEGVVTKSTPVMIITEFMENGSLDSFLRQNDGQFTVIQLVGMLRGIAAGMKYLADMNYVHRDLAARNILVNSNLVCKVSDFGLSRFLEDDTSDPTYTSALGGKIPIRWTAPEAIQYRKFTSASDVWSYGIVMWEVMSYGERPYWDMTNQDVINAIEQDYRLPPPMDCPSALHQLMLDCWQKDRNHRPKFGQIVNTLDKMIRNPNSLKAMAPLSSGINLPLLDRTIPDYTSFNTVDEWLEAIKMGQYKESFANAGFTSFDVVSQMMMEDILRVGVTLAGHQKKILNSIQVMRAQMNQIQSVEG
cKit(V654A)(h) (human), sequence (P10721 544-976 V654A): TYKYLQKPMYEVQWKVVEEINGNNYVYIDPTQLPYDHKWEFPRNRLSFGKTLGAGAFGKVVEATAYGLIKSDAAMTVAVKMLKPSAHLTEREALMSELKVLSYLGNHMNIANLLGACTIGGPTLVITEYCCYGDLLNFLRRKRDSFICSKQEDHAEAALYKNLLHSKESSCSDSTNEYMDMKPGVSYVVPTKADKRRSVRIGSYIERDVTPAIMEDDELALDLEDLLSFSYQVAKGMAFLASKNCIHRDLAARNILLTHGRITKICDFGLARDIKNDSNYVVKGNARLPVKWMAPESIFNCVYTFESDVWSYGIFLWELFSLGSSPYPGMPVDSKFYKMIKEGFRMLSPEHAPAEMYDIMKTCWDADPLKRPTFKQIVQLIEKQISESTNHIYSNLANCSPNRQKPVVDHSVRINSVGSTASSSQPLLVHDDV
Abl(T315I)(h) (human), sequence (P00519 27-1130 T315I limits assumed): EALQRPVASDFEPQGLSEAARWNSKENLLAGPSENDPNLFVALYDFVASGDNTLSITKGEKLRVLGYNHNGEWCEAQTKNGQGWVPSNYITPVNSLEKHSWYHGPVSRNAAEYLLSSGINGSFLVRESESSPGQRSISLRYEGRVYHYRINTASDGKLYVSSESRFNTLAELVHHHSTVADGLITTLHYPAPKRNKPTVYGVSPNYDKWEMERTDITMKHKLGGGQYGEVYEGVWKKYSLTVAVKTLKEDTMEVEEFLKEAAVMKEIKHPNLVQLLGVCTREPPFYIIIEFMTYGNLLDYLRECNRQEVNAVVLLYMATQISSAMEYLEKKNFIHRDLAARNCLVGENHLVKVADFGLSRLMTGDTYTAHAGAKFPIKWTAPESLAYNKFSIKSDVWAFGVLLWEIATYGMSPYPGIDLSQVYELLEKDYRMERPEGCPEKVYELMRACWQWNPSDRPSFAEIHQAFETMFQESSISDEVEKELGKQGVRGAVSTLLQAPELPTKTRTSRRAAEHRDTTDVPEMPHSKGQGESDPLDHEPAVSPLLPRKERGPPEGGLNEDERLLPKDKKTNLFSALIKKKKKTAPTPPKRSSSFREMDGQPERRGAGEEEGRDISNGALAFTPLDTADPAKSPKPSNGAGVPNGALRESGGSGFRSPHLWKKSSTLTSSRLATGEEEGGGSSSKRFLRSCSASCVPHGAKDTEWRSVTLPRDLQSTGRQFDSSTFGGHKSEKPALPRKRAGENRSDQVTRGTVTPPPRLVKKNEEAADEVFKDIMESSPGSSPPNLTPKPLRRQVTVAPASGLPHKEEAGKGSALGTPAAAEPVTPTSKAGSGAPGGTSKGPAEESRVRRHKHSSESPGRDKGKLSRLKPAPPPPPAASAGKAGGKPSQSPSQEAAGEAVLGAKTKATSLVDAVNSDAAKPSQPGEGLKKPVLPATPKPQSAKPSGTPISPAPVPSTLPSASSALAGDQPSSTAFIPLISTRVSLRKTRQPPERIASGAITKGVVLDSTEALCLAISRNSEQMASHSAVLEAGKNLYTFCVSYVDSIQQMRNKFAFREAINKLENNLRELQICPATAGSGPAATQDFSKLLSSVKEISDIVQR
MKK7β(h) (human), sequence (O14733 whole entry): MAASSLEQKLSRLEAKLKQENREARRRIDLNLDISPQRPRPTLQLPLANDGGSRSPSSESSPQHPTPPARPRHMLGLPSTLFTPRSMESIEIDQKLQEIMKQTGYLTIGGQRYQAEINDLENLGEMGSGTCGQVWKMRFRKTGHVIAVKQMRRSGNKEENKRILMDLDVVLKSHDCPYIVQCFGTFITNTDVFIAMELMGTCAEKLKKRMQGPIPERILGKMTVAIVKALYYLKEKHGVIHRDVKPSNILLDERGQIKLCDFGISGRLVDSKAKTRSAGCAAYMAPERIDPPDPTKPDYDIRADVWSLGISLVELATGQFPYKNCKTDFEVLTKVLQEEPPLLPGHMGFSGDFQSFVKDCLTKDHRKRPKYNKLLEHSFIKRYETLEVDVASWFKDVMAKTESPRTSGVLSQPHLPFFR
EphA2(h) (human), sequence (P29317 559-976 limits assumed): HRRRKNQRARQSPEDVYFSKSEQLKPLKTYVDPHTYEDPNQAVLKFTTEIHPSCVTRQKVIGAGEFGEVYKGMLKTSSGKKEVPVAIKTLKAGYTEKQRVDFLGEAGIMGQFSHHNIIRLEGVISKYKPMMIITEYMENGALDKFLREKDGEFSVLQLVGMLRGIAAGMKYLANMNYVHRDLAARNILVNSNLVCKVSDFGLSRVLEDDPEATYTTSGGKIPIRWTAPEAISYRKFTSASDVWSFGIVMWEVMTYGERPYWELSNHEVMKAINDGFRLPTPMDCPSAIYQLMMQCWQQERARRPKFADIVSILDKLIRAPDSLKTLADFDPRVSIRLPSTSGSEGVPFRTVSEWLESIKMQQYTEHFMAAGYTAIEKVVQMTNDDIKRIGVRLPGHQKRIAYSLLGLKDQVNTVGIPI
Abl(H396P)(h) (human), sequence (P00519 27-1130 H396P limits assumed): as the sequence (P00519 27-1130 T315I limits assumed) above, with I289T, H370P counted along it

% activity at 100 µM (Abl(H396P)(h) (human)) [%]	% activity at 100 µM (Abl(T315I)(h) (human)) [%]	% activity at 100 µM (CaMKI(h) (human)) [%]	% activity at 100 µM (EGFR(T790M)(h) (human)) [%]	% activity at 100 µM (EphA2(h) (human)) [%]	% activity at 100 µM (EphB2(h) (human)) [%]	% activity at 100 µM (GCK(h) (human)) [%]	% activity at 100 µM (HIPK3(h) (human)) [%]	% activity at 100 µM (JAK2(h) (human)) [%]	% activity at 100 µM (MKK7β(h) (human)) [%]	% activity at 100 µM (Met(M1268T)(h) (human)) [%]	% activity at 100 µM (Mnk2(h) (human)) [%]	% activity at 100 µM (PAK4(h) (human)) [%]	% activity at 100 µM (PKCδ(h) (human)) [%]	% activity at 100 µM (ROCK-II(h) (human)) [%]	% activity at 100 µM (SAPK3(h) (human)) [%]	% activity at 100 µM (cKit(V654A)(h) (human)) [%]	% activity at 100 µM (Bmx(h) (human)) [%]	% activity at 100 µM (JAK3(h) (human)) [%]	% activity at 100 µM (Met(Y1248D)(h) (human)) [%]	Substance
101	97	1	100	31	18	70	93	133	100	255	89	94	101	74	84	134				MMI-0300 (peptide)
		0		17	22	66			94	265	86	89	90	77	79	150	26	122	31	MMI-0400 (peptide)
51	16	-1	70		70	30	85	49		239	6	86	61	2	24	223	45	95	218	MMI-0500 (peptide)
